Experimental data taken from the nanobody polyreactivity screen of Harvey et al. (2022).

Assay: yeast display, Sf9 membrane polyspecificity reagent, FACS + sequencing; frameworks hold sequencing errors
How it was run: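 Galactose induction of a Saccharomyces cerevisiae BJ5465 synthetic nanobody display library ran 36–48 hours. The cells were then stained for 1 hour at 4 °C with 10% biotinylated, detergent-solubilized Sf9 membrane reagent, pulled down on streptavidin microbeads and FACS-sorted into low and high (top ~1%) gates on expression and reagent-binding fluorescence. Labels for polyreactivity follow the gate of origin.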

Sequence	polyreactivity (PSR sort gate)
QLQLVESGGGLVQAGGSLRLSCAASGSTFRYYAMGWYRQAPGKERELVAAISRTGGSTYYADSVKVRFTISRDNAKNTVYLQMNSLKPEDTAVYYCNVRQFLNRYTSWDYRYHYDYWGQGSQVTVSS	high polyreactivity
QLQLVESGGGLVQAGGSLRLSCAASGSTFSYNAMGWYRQAPWKERELVAAISGSGGTTYYADSVKVRVTISRDNAKNTVYLQMNSLKPEDTAVYYCAARPFRSWRYDYWGQGSQVTVSS	low polyreactivity
QLQLVESGGGLVQAGGSLRLSCAASGSTQGVYAMGSYRQAPGKERELVAAISRSGGRTYYADSVKGRFTISRDNAKNTVYLQMNSLKPEDTAVYYCAADYYLWVYWYDYWGQGTQVTVSS	high polyreactivity
QLQLVESGGGLVQAGGSLRLSCAASGTIFDTYAMGWSRQAPGKEMELVAAIRWTGGSTYYADSVKGRFTISRENAKNTVYFQMNSLKPEDTAVYYCAATWYYHYNDWKPWFEYGYWGQGTQVTVSS	low polyreactivity
QLQLVESGGGLVQAGGSLRLSCAASRSTFKYYAMGWYRQAHGKERELVAAISRRGGSTYYADSVKGRFTISRDNAKNTVYLQMNSLKPEDTAVYYCAADIIRPVTVDYWGQGTQVTVSS	high polyreactivity
QLQLVESGGGLVQAGGSLRLSCAATGFIFRYYVMGWYRQAPGKERELVAAITSGSTYADSVKGRFTISRDNAKNTVYLQMISLKPEDTAVYYCAAVKSQRGGPYSRGGKFGYWGQGTQVTVSS	high polyreactivity
QLQLVESGGGLVQAGGSLRLSSAASGIIRVNAMGWNIQAPGKQRELVATITNVGSTNYADSVKGRFTISRDNAKNTVYLQMNSLKPEDTAVYYCAAEYDGPFYSFYPEQRYYWGQGTQVTVSS	low polyreactivity
QLQLVESGGGLVQAGGSLRVSCAASGSIFLRYAMGWYRQAAGKERELVAAITSSGGSTYYADSVKGRFTISRDNAKNTVYLQMNSLKPEDTAVYYCNRYSYLFPYYWKYDYWGQGTQVTVSS	high polyreactivity
QLQLVESGGGLVQSGGSLRLSCAASGRTFDWYTKGWYRQAPGKERELVAAITSGGTTNYADSVKGRFTISRDNAKNTVYLQMNSLKPEDTAVYYCAKDEGEGYDYWGQGTQVTVSS	low polyreactivity
QLQLVESGGVLDQAGRSLRLICAASVIIFRGYAKGRSRQAHGKERELVAAISRSGGRTYYADSVKGRFTISRDNAKKTVYLQRNSLKTEDTAVYYCAPQWLYLEYDYWGQGTQVTVSS	high polyreactivity
QLQLVESGRGLVQAGGSLRLSCAGSGFIVGYNAMGSYRQAPGKDRELVAAISSGGSTYYADSVKGRFTISRVNAKNTVYLQMNSLKPEDTAVYYCAVELGYPIQSYALWWDFEYWGQGTQVTVSS	low polyreactivity
QLQLVESLRGLVQAGGSLRLSCAASVSIIGPNAMGLYRQATGKERELVAAITLSGGSTYYADSVKGRFTISRDNAKNTVYLQMNSLKPEDTAVYYCNADLLPADAPLWVTGGDYWGQGTQVTESS	low polyreactivity
QLQLVESRGGLVQSGGSLRLSCAASGRIFWRYAMGWYRQAPGNERELVAAISGRSGSTYYADSVKGRFTISRDNAKNTVYLLMNSLKAEDTAVYYCAAKYGTLRYDYWGQGTQVTVSS	high polyreactivity
QLQLVESVGGLVQAGGSLRLSCAPSGSTFYWNAMGWYRQAPGKERELVAVITSSGTRTYYADSVKGRFTISRDNAKNTVYLQMNSLKPEDTEVDYCAKRETYTGPNSRYGQWKKVYYWGQGTQVTVSS	low polyreactivity
QLQPVESGGGLVQAGGSLRLSSAASGSTFVSYDRGWYRQAPGKERALVAVITSGGSTNYADSVKGRFTISRDNAKNTVYLQMNSLKPEETAVYYCAKRRYGRSGGSRYHYWGQGTQVTVSS	high polyreactivity
QLQRVESGGGLVQAGGSLRLSCAASGSTFYPNAMGWYRQAPAKEREFVAAISTSAGRTYYADSVKGRFTISRDNAKNTVYLQMNSLKPEDTAVYYCNARYWVYYVYEYDSWGQGTQVTVSS	low polyreactivity
QVELQVSGGGLVRAGGSLRLSCAASGNIFDADIMGWYRQAPGKERELVASITGGGSTSYAESAKGRFTISRDNAKNAVYLQMKSLKPEDTAVYYCARDSWWYHHYDYWGQGTQVTVSS	low polyreactivity
QVELQVSGGGLVRAGGSLRLSCAASGNIFDADIMGWYRQAPGKERELVASITGGGSTSYAESAKGRFTISRDNAKNAVYLQMNSLKPEDTAVYYCARDSWWYHHYDYWGQGTQVTVSS	low polyreactivity
QVELVASGGGLVQAGGSLRLSCAASGSTFAANAMGWYRQAPGKERELVAAITSGGGSTYYADSVKGRFTISRDNEKITVYLQMNSLKPEDTAVYYCAALQSHGVDYDYWGLGTQVTVSS	low polyreactivity
QVELVESGGCLVQARGSLRLSCAGSGSIFYRNAMGWYRQAPGKERELVAAISSDGSTNYADSVKGRFTISRDNAKITVDLQMNSLIPEDTAVYYCAGPWTEILDYWGQGTQVTVSS	low polyreactivity
QVELVESGGGLVQAGGSLRLSCAASGSTFFKYDMGWYRQAPGKERELVAVITWSGGTTFYADSVKGRFTISRDNAKNTVYLQMNSLKPEDTAVYYCAADYYGYRYDYWGQGTQVTVSS	low polyreactivity
QVHHVESGGGLVQAGGSLRLSCAASGFIIPYYAMGWYRPAPGKERELVAAISWSGSNTYYADSVKGRFTISRDNAKNTVYLQMNSLKPEDTAVYYCAARYSVYYFVQRNGRYGYWGQGTQVTVSS	high polyreactivity

Sequence	polyreactivity (PSR sort gate)
QVHHVESGGGLVQAGGSLRLSCAASGLILVPNTMGWYRQAPGKERELVAAISYSGGGTYYADSVKGRFTISRDNAKNNVYLQMNSLKPEDTAVYYCAAYVKRESAPYGYWGQGTQVTVSS	low polyreactivity
QVHLEESGGGLVQAGGSLRLSSAASGFTFRSNAMGWYRQAPGKERELVAAITSRGGSTYYADSVKGRFTISRDYAINTVYLQMNSLKPEDTAVYYGAADGRSRKFDYWGQGTQVTVSS	high polyreactivity
QVHLGETGGGLVQAGGSLRLSCAASGSIFSSYAMGWYRQAPGKETELVATITRGGRTSYADSVKGRFTISRDNAKNTVYLQMNSLKPEDTAVDYCAADLYDNVGEFNYWGEGTQVTVSS	low polyreactivity
QVHLLESWGGLFHAGGSPRLSCAASGRTFGRYAMGWYRQSPATERELVAAITFRGGHSYYADSVKGRFTISRDNAKNTVYFQMNSLKPEDTAVYYCAKRGGYWHKFDYWGQGTQVTVSS	high polyreactivity
QVHLQECGDGLVQALGSQRLSCAARCYISGYYYMGWYRQAPGKERELVAGIDAFGSSTNYADCVKGRFTISRYNAKNTVYLQMKSLKPEDTALYYCAARPDGDRLFSYWGQGTQVTVFS	low polyreactivity
QVHLQESGGGLEQAGGSPRLSCAASDNIFPDSVMCWYRQAPGKERELVATIGFGATTNYADSVKGRFTISRDNAKKTVFLQMNSLKPEDTAVYYCAADTLNYEYFCYWGQGTQVTVRS	low polyreactivity
QVHLVDSAGGLVQAGGSLRLSCSASGSTFAVYAMGWYRQAPGKERELVAAISSSGDRTYYADSVKGRFTFSRDNAKNTVYLQMNILKPEDTAVYYCAVAIGYVYKTYYYWGQGTQVTVSS	high polyreactivity
QVHLVDSGGCLVQAGGSLRLSCAASGRTFSAYAMGWYRQAPGKEREVVAAISRSGGSTYYADSVKGRFTISRDNAKNTVYLPMNSLTPEDTAVYDCAVRWPSARIPVKLEDWGQGTQVTVSS	high polyreactivity
QVHLVDSGGGLVQAGGILRLSCAASGRIFVNTMGCYRQAPGKEMELVAAITRSGVSTYYADSVKGRFTISRDNAKNTVYLQMNSLKPEDTAVYYCAAREWSGPKIYPPYRYNSWGQGTQVTVSS	high polyreactivity
QVHLVDSGGGLVQAGGRLRLSCPASVSTFYYYVKGWYRQPPGKERELVAAISSGCHTNYADSVKGRFTISRDNAKNTVYLQMNSLIPEDSAVYYCAAKPRRGTLLRYGYWGQGTQVTVSS	high polyreactivity
QVHLVDSGGGLVQAGGSLRLRCAASGSSFNPNAMGLYRQDPGKERELVAAITSGGSTYYADSVKGRFTISRDNAKNTVYLQINSLKQEDTAVYYCNKALTSKDYPVRTVERDYWGQGTKVTVSS	low polyreactivity
QVHLVDSGGGLVQAGGSLRLSCAASGFNFTYYGMGSYRQAPGKERELVAAISESCGSTYYADSVKGRFTISRDNAKNTVYLQMTSLKPEDTAVYYCAADVTKRASRDYYWGQGTQVTVSS	high polyreactivity
QVHLVDSGGGLVQAGGSLRLSCAASGRIIDLYAMGCYRQAPGKEWELVAVIDIRDTSTYYADSVKGRFTISRDNAKNTVYLEMNSLKPEDTSVYYCAADYLVYDWYTYGYWGQGTQVTVSS	high polyreactivity
QVHLVDSGGGLVQEGGSLRLSCAASGFISPKYRMGWYRQAPRKERELVAANTTSDGSTSYADSVKGRFRISRDNAKTTVYLQMISLKPEDSAVYYCAAGYESWRSWVRRYLRMDYWGQGTQVTLSS	high polyreactivity
QVHLVDSGGGLVQEGGSLRLSCGASGSTFQSYAMGWYRQSPGKERELVAVIDSGGRTYYADSVKGRFTISRDNAKNTVYLQINSLKPEDTAVYYCAARGPVGNGWRYRPWHDYWGQGTQVTVSS	high polyreactivity
QVHLVESAGGLVQAGGSLRLSCAASGITFSDNAMGWYRPAPGKETEVVAAISWGGGSTYYADSVKGRFTISRDNAKNTVYLQMNSLKPEDTAFYYCNAGGYLISDVDRVGYWGQGTQVTVSS	low polyreactivity
QVHLVESAGGLVQAGGSLRLSCAASGRIFTPYAMGWYRQAPGKERELVAVIRDGSTYYADSVKGRFTISRDNAKNTVYLQMNSLKPEDSAVYYCRYDIWVWWSGAYDYWGQGTQVTVSS	low polyreactivity
QVHLVESAGGLVQAGGSLRLSCDASGFIFPRYDMGSYRQAPGKEREMVAAISRRGGSTNYADSVKGRFTISRDNAKNTVYLQMNSLKPEATAVYYCNADTTGYSSYGYDYWGQGSQVTVSS	high polyreactivity
QVHLVESGAGLVKAGGSLRLSCAASGRTFRYNAMGWYRQQPGNERELVATITTRGGSTYYADSVKGRFTISRDNAKNTVYLQMNSLKPEDTAVYYCATKWPVYPTGYDYWGQGTQVTVSS	low polyreactivity
QVHLVESGAGLVQAGGILRLSCAASGRIFAHYALGWYRQAPGKERELVAAISRGGSTKYADSVKGRFTISRDHAKNTVYFQMNSLKPEDTAVYYCARQLWGSPYGAYYAGDYWGQGTQVTVSS	low polyreactivity
QVHLVESGGCLVQAGGSLRLSCSASGSIFGWYAMGWYRQAPGKEREFVAAISYSGGSTYYADSVKGRFTNSRDIAKITVYLQINSLKPEDTAVYYCNARPYWYFPYRVPEGYDYWGQGTQVTVSS	high polyreactivity
